{"source": "paper doi:10.1101/495820", "binders": {"B1": {"name": "40 bp random-sequence dsDNA (dsDNA)", "DNA 1": "TTAGTTGTTCGTAGTGCTCGTCTGGCTCTGGATTACCCGC", "DNA 2": "GCGGGTAATCCAGAGCCAGACGAGCACTACGAACAACTAA"}}, "biological_target": "T1, SmcH-CC100 (Bacillus subtilis, UniProt P51834 400-774)", "T1 sequence": "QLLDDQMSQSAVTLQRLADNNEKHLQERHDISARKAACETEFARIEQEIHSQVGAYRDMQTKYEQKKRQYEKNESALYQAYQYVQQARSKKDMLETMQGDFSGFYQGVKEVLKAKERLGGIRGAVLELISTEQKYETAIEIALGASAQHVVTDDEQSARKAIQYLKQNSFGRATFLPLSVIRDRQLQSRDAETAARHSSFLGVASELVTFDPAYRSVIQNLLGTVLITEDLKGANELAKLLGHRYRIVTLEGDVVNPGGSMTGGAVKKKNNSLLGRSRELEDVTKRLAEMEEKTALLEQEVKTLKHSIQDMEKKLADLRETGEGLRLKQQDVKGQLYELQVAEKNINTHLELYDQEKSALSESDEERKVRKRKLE", "test": "fluorescence anisotropy", "data": [{"binder": "B1", "values": [{"measurement": "binding result", "value": "binds"}]}]}
